US20250312444A1 (BEIJING TUO JIE BIOPHARMACEUTICAL, published 2025)

Key:
Experiment in all cases: cell-based or functional assay
[1] = molecular target: human RXFP2 receptor (human, UniProt Q8WXD0 1-754)
[2] = molecular target: T1, rat RXFP1 receptor (rat, UniProt Q6R6I6 1-758)
T1 sequence (looked up): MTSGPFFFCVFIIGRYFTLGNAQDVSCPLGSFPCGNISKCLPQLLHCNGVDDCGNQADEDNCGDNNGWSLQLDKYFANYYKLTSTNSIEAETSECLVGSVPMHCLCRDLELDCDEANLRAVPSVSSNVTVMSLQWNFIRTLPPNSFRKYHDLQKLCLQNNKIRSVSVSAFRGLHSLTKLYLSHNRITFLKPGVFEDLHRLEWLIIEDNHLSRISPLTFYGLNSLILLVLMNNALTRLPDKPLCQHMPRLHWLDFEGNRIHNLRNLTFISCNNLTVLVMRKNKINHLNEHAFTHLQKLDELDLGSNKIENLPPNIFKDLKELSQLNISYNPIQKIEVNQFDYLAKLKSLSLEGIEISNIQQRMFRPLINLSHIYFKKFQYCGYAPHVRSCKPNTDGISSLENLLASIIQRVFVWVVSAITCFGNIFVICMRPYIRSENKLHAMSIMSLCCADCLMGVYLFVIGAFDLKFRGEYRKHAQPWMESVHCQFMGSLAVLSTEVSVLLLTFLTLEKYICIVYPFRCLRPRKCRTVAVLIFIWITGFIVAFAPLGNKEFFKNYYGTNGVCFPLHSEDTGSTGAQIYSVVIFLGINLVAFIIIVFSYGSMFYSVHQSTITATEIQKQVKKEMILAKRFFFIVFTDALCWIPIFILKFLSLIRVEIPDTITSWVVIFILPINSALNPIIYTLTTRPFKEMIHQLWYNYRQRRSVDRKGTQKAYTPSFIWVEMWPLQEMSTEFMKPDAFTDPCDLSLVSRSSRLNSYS

[3] = molecular target: T2, mouse RXFP1 receptor (mouse, UniProt Q6R6I7 1-758)
T2 sequence (looked up): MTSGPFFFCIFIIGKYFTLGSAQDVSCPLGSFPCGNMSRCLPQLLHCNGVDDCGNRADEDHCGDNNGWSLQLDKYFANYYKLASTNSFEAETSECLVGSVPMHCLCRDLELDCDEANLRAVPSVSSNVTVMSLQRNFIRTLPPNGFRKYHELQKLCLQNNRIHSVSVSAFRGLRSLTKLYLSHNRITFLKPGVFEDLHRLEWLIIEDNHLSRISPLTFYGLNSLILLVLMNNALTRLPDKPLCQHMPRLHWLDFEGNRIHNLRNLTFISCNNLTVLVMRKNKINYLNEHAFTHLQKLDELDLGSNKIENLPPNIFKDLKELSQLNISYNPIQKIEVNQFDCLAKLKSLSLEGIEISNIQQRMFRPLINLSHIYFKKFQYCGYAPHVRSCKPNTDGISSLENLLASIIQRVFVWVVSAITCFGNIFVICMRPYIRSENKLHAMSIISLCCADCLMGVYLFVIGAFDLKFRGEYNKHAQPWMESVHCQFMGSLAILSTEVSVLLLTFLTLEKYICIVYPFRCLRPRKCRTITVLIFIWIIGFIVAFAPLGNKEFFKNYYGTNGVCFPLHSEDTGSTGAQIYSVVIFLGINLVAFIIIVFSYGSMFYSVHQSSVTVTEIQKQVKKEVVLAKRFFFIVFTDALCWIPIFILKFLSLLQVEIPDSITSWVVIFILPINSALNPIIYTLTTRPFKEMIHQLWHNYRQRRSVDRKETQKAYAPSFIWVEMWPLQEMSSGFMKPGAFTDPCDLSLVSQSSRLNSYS

[4] = molecular target: dog RXFP1 receptor (dog)
[5] = molecular target: T3, cynomolgus monkey RXFP1 receptor (cynomolgus monkey, UniProt H9ERA2 1-757 (rhesus entry))
T3 sequence: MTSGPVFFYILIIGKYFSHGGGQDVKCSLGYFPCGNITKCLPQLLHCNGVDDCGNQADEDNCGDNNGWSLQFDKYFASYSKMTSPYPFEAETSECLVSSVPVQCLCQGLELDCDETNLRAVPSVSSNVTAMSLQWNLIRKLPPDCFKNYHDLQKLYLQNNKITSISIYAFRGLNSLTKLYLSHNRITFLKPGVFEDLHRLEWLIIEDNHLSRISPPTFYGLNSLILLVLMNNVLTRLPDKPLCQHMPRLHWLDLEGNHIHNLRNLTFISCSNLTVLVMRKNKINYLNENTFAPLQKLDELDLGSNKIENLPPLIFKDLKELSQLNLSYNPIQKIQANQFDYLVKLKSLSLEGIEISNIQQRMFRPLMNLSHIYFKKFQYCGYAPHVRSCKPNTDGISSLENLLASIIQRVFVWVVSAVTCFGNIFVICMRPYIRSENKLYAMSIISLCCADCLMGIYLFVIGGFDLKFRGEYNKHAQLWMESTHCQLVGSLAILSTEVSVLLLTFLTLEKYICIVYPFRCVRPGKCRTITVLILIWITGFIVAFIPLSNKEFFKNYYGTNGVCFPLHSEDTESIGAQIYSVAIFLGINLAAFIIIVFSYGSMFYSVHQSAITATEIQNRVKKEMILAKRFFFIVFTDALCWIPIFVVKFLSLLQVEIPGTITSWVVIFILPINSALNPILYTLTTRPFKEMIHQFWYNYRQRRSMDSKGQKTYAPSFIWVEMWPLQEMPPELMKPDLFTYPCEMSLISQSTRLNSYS

- EC50 (nM), cAMP production in CHO-K1 cells with receptor overexpression [1]: 1250 nM
- EC50 (nM), cAMP production in CHO-K1 cells with receptor overexpression [2]: 21.1 nM
- EC50 (nM), cAMP production in CHO-K1 cells with receptor overexpression [3]: 21.7 nM
- EC50 (nM), cAMP production in CHO-K1 cells with receptor overexpression [4]: 2210 nM
- EC50 (nM), cAMP production in CHO-K1 cells with receptor overexpression [5]: 25.1 nM
B1: 0051 (other)
chain: EVQLLESGGGLVQPGGSLRLSCAASGFTFLTSCMGWFRQAPGKEREGVSSIYTVGGSTFYTNSVKGRFTISRDNSKNTLYLQMNSLRAEDTAVYYCAAGSPARCRLRDPTTFDYWGQGTLVTVSSGGGGQGGGGQGGGGQGGGGQGGGGQSWMEEVIKLCGRELVRAQIAICGMSTWSGGGSGGSGGGQLYSALANKCCHVGCTKRSLARFC
notes: Single-chain fusion: anti-HSA VHH, linker, relaxin-2 B chain, linker, relaxin-2 A chain; also called fusion protein 0051; molecule 0051
